The values below come from publication PMC8069351, “Characterization of Two Unique Cold-Active Lipases Derived from a Novel Deep-Sea Cold Seep Bacterium” (Microorganisms, 2021).

Substrate in this data set: CCCCCCCCCCCCCCCC(=O)Oc1ccc([N+](=O)[O-])cc1
Nature of the data set: purified protein. It counts as biochemical, Pseudomonas sp. gcc21. The following applies: 50 mM Tris-HCl pH 8.0, 4 °C, substrate 0.2-1.2 mM, text b44 swaps the two lipases' Km.

B1: Lipase 2 (Pseudomonas sp. gcc21) (protein)
chain: MNSPLLKLSTLTLGLVFAAGAYAFNPGNPGGPSNPGGDQPVESGFPSVGNFEASGSFATTNASEGPSCTIYRPRTLGENDLKHPIILWGNGTGTSPSGYSALLNHWASHGFVVAAANTTNAGSGAEMLACLDYLAEQNGRGSGTYAGKLNLDAVGSSGHSQGGGGSIMAGQDSRITATAPFQPYTLGLGHRRASQSNQNGPMFLMTGSADTLASSEANGRPVFNNANVPVFWGELQGASHFVPAFNGGGYRGPSTAWYRYHLMGDQNAESTFYGADCKLCTSSEWKVQKKGIQ
By Km is commonly meant the substrate concentration at which the rate is half of its maximum. Usually kcat stands for the maximal rate divided by the concentration of active sites. By kcat/Km is commonly meant the turnover number divided by the Michaelis constant. In the case of B1, the Michaelis-Menten constant (Km) amounted to 20 µM, the catalytic constant (kcat) came to 2.7 s⁻¹ and the specificity constant (kcat/Km) worked out at 140000 M⁻¹ s⁻¹.
